One assay concerns KPL-4 cells. The assay can be described thus: Cell growth inhibition of drug 1 (4), CellTiter-Glo. The assay is classed as cell-based. The conditions noted are these: KPL4, 144 h; human breast cancer cell line; 6 days culture; read-out: anticellular effect IC50 on KPL-4 cells. Here is the method:
KPL-4 cells (Dr. Junichi Kurebayashi, Kawasaki Medical School, British Journal of Cancer, (1999) 79(5/6). 707-717), a human breast cancer cell line, were prepared with RPMI1640 Medium (Thermo Fisher Scientific; hereinafter, referred to as RPMI medium) containing 10% fetal bovine serum (Hyclone) to reach 6.25×10^3 cells/mL, and 80 μL portions of them were added to a 96-well cell culture microplate. After addition of the cells, the cells were cultured at 37° C. and 5% CO2 overnight.
On the next day, 20 μL portions of drug 1 diluted with RPMI medium to 100 nM, 20 nM, 4 nM, 0.8 nM, 0.16 nM, 0.032 nM, 6.4 pM, 1.3 pM, and 0.26 pM were added to the microplate. To each well without any antibody-drug conjugate, 20 μL of RPMI medium was added. KPL-4 was cultured at 37° C. and 5% CO2 for 6 days. After culturing, the microplate was taken out of the incubator, and left to stand at room temperature for 30 minutes. CellTiter-Glo Luminescent Cell Viability Assay (Promega Corporation) in an amount equivalent to that of the culture solution was added, and stirred using a plate mixer. The microplate was left to stand at room temperature for 10 minutes, and thereafter the amount of emission was measured by using a plate reader (PerkinElmer). Cell survival rates were calculated by using the same formula as in Example 37.

A further assay has as its target T1, human CLDN3 (human, UniProt O15551 1-220).
T1 construct: whole, on cells
T1 sequence (looked up): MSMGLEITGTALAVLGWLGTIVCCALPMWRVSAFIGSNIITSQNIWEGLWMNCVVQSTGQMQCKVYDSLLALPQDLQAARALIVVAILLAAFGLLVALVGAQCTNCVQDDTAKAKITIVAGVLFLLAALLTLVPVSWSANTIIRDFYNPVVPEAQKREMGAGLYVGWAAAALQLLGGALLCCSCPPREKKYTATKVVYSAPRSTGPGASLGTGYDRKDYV
The assay can be described thus: flow cytometry on transiently transfected 293T cells. Here is the method:
(§1) Binding activity of the mouse anti-CLDN6 antibodies produced in Example 6 to human CLDN6 and its family molecules, CLDN3, CLDN4, and CLDN9, was evaluated by using a flow cytometry method. Human CLDN3/pCMV6-Entry, human CLDN4/pCMV6-Entry, human CLDN6/pCMV-Entry, human CLDN9/pCMV6-Entry, or pCMV6-Entry purchased from OriGene Technologies, Inc. was transiently transferred into 293T cells (Thermo Fisher Scientific, HCL4517) by using Lipofectamine 2000 (Thermo Fisher Scientific), and the cells were cultured under conditions of 37° C. and 5% CO₂ overnight, and then a cell suspension was prepared. […] The cells were washed twice with Dulbecco's phosphate buffered saline (Sigma-Aldrich Co. LLC) containing 5% fetal bovine serum (Hyclone) (hereinafter, referred to as 5% FBS-containing PBS), and FLUORESCEIN-CONJUGATED GOAT IGG FRACTION TO MOUSE IGG (WHOLE MOLECULE) (MP Biomedicals, Inc.) 500-fold diluted with 5% FBS-containing PBS was then added thereto, and the cells were suspended and left to stand at 4° C. for 1 hour. After washing twice with 5% FBS-containing PBS, detection was carried out by using a flow cytometer (FC500; Beckman Coulter, Inc.). Data analysis was carried out by using FlowJo (Tree Star, Inc.). […] In each graph in FIG. 40, the ordinate represents FITC fluorescence intensity indicating the amount of the binding antibody and the abscissa represents antibody concentrations.
(§2) The binding activity of the humanized anti-CLDN6 antibody produced in Example 10 to human CLDN6 and its family molecules, CLDN3, CLDN4, and CLDN9, was evaluated by using a flow cytometry method.

For the next assay, the target named is T2, human CLDN4 (human, UniProt O14493 1-209).
T2 construct: whole, on cells
T2 sequence (looked up): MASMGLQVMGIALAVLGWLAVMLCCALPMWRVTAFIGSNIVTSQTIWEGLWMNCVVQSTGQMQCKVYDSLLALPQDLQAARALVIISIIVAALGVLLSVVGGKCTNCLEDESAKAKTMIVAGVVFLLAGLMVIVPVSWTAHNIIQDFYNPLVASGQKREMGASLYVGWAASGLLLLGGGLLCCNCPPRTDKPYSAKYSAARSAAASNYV
The description is as above. Here is the method:
as §1, §2

The target in the next assay is T3, human CLDN9 (human, UniProt O95484 1-217).
T3 construct: NP_066192; It was expressed on 293T cells transiently transfected with human CLDN9/pCMV6-Entry (OriGene); also called claudin-9
T3 sequence: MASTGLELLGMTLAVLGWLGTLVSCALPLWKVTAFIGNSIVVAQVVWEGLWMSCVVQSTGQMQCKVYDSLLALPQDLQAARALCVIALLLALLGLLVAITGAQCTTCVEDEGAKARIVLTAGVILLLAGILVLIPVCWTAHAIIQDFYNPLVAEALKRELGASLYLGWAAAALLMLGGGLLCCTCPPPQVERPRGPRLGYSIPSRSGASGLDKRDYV
Described as above. Here is the method: as §1, §2

Assay [1] deals with T4, human CLDN6 (human, UniProt P56747 1-220).
T4 construct: Four-transmembrane protein, NP_067018; It was also expressed on CHO-K1 cells by cDNA transfection; In the immunoprecipitation it was the endogenous protein from NTERA-2 cell lysate; also called hCLDN6; claudin-6
T4 sequence: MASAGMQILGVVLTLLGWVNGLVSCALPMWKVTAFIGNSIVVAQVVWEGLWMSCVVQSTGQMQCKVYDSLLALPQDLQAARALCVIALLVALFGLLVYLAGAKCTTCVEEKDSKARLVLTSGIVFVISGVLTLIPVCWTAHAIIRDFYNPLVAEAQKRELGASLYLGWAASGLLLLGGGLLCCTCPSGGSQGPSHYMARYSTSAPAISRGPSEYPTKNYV
The assay is described as follows: immunoprecipitation from NTERA-2 cell lysate, SDS-PAGE, mass spectrometry of the 18 kDa band.

In assay [2] the target is T4, human CLDN6. The assay is described as follows: FACS on CHO-K1 cells transfected with human claudin-6 cDNA.

Substitutions are numbered along the chain they refer to.

Here are results for three molecules from patent US20220168440A1, “ANTIBODY-PYRROLOBENZODIAZEPINE DEPRIVATIVE CONJUGATE” (DAIICHI SANKYO COMPANY, LIMITED, priority 2019, published 2022).

Regarding `COc1ccc(C2=CN3C(=O)c4cc(OC)c(OCCCCCOc5cc6c(cc5OC)C(=O)N5CC7(CC7)C[C@H]5C=N6)cc4NC[C@@H]3C2)cc1` [Drug 1, (11a′S)-7′-Methoxy-8′-[(5-{[(11aS)-7-methoxy-2-(4-methoxyphenyl)-5-oxo-5,10,11,11a-tetrahydro-1H-pyrrolo[2,1-c][1,4]benzodiazepin-8-yl]oxy}pentyl)oxy]-1′,11a′-dihydro-5′H-spiro[cyclopropane-1,2′-pyrrolo[2,1-c][1,4]benzodiazepine]-5′-one], the IC50 in the assay on KPL-4 cells is 10 to 20 pM.

B1: mouse anti-CLDN6 antibody B1 (antibody, V domains shown)
VH: EVQLQQSGPELVKPGASVKISCKTSGYTFTEYTMHWVQQSHGKSLEWIGGVNPNSGDTSYNQKFKGKATLTVDKSSSTAYMELRSLTSEDSAVYYCARPGGYDVGYYAMDYWGQGTSVTVSS
VL: DIQMTQTASSLSASLGDRVTISCRASQDINNYLNWYQQKPDGTVKLLIYFTSRLHSGVPSRFSGSGSGTHYSLTITNLEQEDIATYFCQQGYPLPWTFGGGTKLEIK
notes: Mouse monoclonal antibody purified from hybridoma 218B1 culture supernatant; a mouse IgG1 antibody was used as the control; also called B1 antibody; 218B1 antibody
As to B1, the binding result with human CLDN3 is listed as “no binding (tested: 30 µg/mL (highest concentration tested))”; with human CLDN4, “no binding (tested: 30 µg/mL (highest concentration tested))”; with human CLDN9, “binds”; with human CLDN6 [1], “binds”.

B2: mouse anti-CLDN6 antibody C7 (antibody, V domains shown)
VH: B1 VH
VL: B1 VL with F50S, N77H
notes: Mouse monoclonal antibody purified from hybridoma 218C7 culture supernatant; a mouse IgG1 antibody was used as the control; also called C7 antibody; 218C7 antibody
Regarding B2, the binding result in the assay with human CLDN3 is given as “no binding (tested: 30 µg/mL (highest concentration tested))”; in the assay with human CLDN4 it was “no binding (tested: 30 µg/mL (highest concentration tested))”; with human CLDN9, “binds”; with human CLDN6 [2], “binds”.
